Data set [1] concerns patients with multiple myeloma. Conditions: COLUMBA, cited from earlier work.
Data set [2] deals with patients with RRMM. In words: PAVO Part 1: DARA MD safety and efficacy.
Data set [3] concerns patients with RRMM. Conditions: DARA MD 1,800 mg; PAVO Part 1; median follow-up 8.3 months; cited from earlier work.
The subject of data set [4] is patients with RRMM. Conditions: in vivo.
Data set [5] has as its system patients with RRMM. In words: PAVO Part 3: immunogenicity (anti-daratumumab and anti-rHuPH20 antibodies). Type of data set: in vivo, human. The procedure:
For evaluation of immunogenicity, anti-daratumumab antibodies in serum and anti-rHuPH20 antibodies in plasma were assessed pre-dose on Cycle 1 Day 1, Cycle 1 Day 15, Cycle 2 Day 22, Cycle 4 Day 1 and 4- and 8-weeks post-treatment. The presence of anti-daratumumab and/or anti-rHuPH20 antibodies was assessed for classification as neutralizing antibodies.

“Also recorded” adds a separate entry of the source.

For “DARA IV: daratumumab 16 mg/kg given by intravenous infusion”, in data set [1] (follow-up 7.5 months), the “Median duration of response” value was “not reached”. Besides, in data set [1] (median follow-up 7.5 months), the Overall response rate is recorded as 37%.
As for “DARA MD: mix-and-deliver formulation of daratumumab (20 mg/mL) and rHuPH20 given subcutaneously by syringe pump”, in the data set on patients with RRMM [2], the “Anemia, TEAE of Grade >3” value amounted to 15.6%; the “Serious TEAEs in SOC General disorders and administration site conditions” value was determined as 6.7%; the “TEAEs in SOC General disorders and administration site conditions” value is reported as 71.1%. The ORR in the data set on patients with RRMM [3] is listed as 42.2%. Also, in the data set with patients with RRMM [4], the “Serious TEAEs in SOC Infections and infestations” value is reported as 17.8%; the “TEAEs in SOC Infections and infestations” value is 71.1%.
Regarding “daratumumab: human IgG1/κ anti-CD38 monoclonal antibody; heavy chain SEQ ID NO:12, light chain SEQ ID NO:13”, the “Patients positive for anti-daratumumab antibodies” value in the data set on patients with RRMM [5] (daratumumab immunogenicity-evaluable n=41) was “no patient tested positive; also recorded: no patients evaluable for daratumumab immunogenicity were positive”.

B1: rHuPH20: recombinant hyaluronidase having the amino acid sequence of SEQ ID NO: 22 (protein, listed as Homo sapiens)
chain: LNFRAPPVIPNVPFLWAWNAPSEFCLGKFDEPLDMSLFSFIGSPRINATGQGVTIFYVDRLGYYPYIDSITGVTVNGGIPQKISLQDHLDKAKKDITFYMPVDNLGMAVIDWEEWRPTWARNWKPKDVYKNRSIELVQQQNVQLSLTEATEKAKQEFEKAGKDFLVETIKLGKLLRPNHLWGYYLFPDCYNHHYKKPGYNGSCFNVEIKRNDDLSWLWNESTALYPSIYLNTQQSPVAATLYVRNRVREAIRVSKIPDAKSPLPVFAYTRIVFTDQVLKFLSQDELVYTFGETVALGASGIVIWGTLSIMRSMKSCLLLDNYMETILNPYIINVTLAAKMCSQVLCQEQGVCIRKNWNSSDYLHLNPDNFAIQLEKGGKFTVRGKPTLEDLEQFSEKFYCSCYSTLSCKEKADVKDTDAVDVCIADGVCIDAFLKPPMETEEPQIFY
Turning to B1, the results for the “Patients positive for treatment-emergent anti-rHuPH20 antibodies” value in the data set with patients with RRMM [5] (1-week taper), with patients with RRMM [5] (2-week taper) and in the data set with patients with RRMM [5] (3-week taper) were 1 (9.1%) n (%), 3 (20.0%) n (%) and 6 (40.0%) n (%), respectively. Besides, in the data set on patients with RRMM [5] (all cohorts), the “Neutralizing anti-rHuPH20 antibodies” value is “None of the anti-rHuPH20 antibodies were neutralizing antibodies”.

The values are drawn from US20230136301A1, “Corticosteriod Reduction in Treatment with Anti-CD38 Antibody” (Janssen Biotech, Inc., priority 2021, published 2023).
